Tested on: K4 kissing-loop RNA reporter
Assay: apparent KD of K4 kissing-loop reporter; higher = weaker reporter binding
Conditions: Eterna round: R107
Method: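 RNA-MaP round R107: designed RNA switches with theophylline, tryptophan, arginine or FMN aptamers are transcribed on-chip within common flanks. They are titrated with a labelled K4 kissing-loop RNA reporter in RNA-MaP buffer (100 mM Tris pH 7.5, 80 mM KCl, 4 mM MgCl2), without ligand or with the indicated ligand. Median apparent KD per design.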

[1] = input ligand: theophylline 20 uM
[2] = input ligand: tryptophan 2.4 mM
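Further: bound reporter read as fluorescence of individual clusters on recovered sequencing chips by microscopy, with normalized cluster intensities fitted with a binding model.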

Sequence | apparent KD of K4 kissing-loop reporter (input ligand: FMN 200 uM) [nM] | apparent KD of K4 kissing-loop reporter (input ligand: arginine 13.2 mM) [nM] | apparent KD of K4 kissing-loop reporter (input ligand: none) [nM] | apparent KD of K4 kissing-loop reporter [1] [nM] | apparent KD of K4 kissing-loop reporter [2] [nM]
GGAUUGCGUUCGGCCGCCACUAGACUACAUUCCACGCCCGACCCGUUUUUAAGUGAUGUUUAAACUAGGACCGGGAACCGAUUUC [theeternabot_exclusion_KL_Trp_B_33] | 435 | 291 | 395 | 388 | –
GCCUACGCUGCAGGAUAUAGUUACAGCGACUUAGCCGUUGUAUGUCCAUGGUUCAGUGAUGUUGAACUAGAAGGGCAGCGUAGGC [#02 K4 FMN B Exclusion] | 285 | 127 | 132 | 134 | 154
CCGAAGAACCAGUGAUGUUGGUUGACUAGACAGGAUAUGAGCAACAUCAGAAGGGUCUGGCUUCGGGAGAGAGUCGCGCUGACCU [Anditebier] | 208 | 350 | 388 | 28.7 | 453
CGUUUAUAGCAGGAUACCAGUACCCAUAAAGUACGUUAAUAGUAGAGUGAUGUUCUAAAGUACCCUUGGCAGCUUCCCGUGACCC [ExTheophylB.W] | 103 | 160 | 133 | 182 | 79.6
UCUGGUAUAUCUGAUACCAGAGAAUAGAAUCAAUUGAAUAUGGAGUGAUGUUCCAUAAAACUCCCUUGGCAGCAGAUAAUCAUAU [Same State Theophylline B GF 22] | 113 | 167 | 125 | 172 | 112
CGAGUGAUGUUCGAAGAGUUGUUGAGCGAUACCAGCCAGGAAACUGGCCCUUGGCAGCGUAAUAAAUAAAUAAAUAAAUGAUCAC [whbob_Ex_Theo_A_th61] | 364 | 464 | 410 | 635 | 333
ACCUGUAGUGAUGUUACUGGUGGUUAGGAAGGAGCGCCCGCGUGGGCAGGUAGGUCGCCUAAGCUAUGUGGGAAACCGCAUAUUG [#14 K4 Arginine A Same State] | 75.5 | 73.8 | 76.9 | 75.3 | 93.3
UAAUAUAAUCUGUCGUUUACAAUAUUUAGUCAGGAUAUCGUAUAUUCGAGAAGGGACACUAUCUAGUGAUGUUAGAUAUUUCGUU [JR_ExcFMNA_Sub015] | 51 | 81.4 | 59.6 | 76.6 | 54.6
AAUUUCGGAUACAUCAUAGUUUUAAUUCGGCGAGGACCGGUACGGCCGCCACUCGGUAUAGACGCGUCCAGUGAUGUUGGCGCUU [theeternabot_sameState_KL_Trp_A_45] | 262 | 193 | 237 | 260 | 223
GAUUUAGAGGCGGCCGCCACUAGUGAUGUUAGUGAUGUUUGAUACGGAAUAUAUCUGCGAGUAGAUAGGACCGGGCCAGAUGGAG [rttrbmullin] | 207 | 150 | 170 | 184 | 181
AGACUACCACACUGUCAAUAGACAGUGAAUUAGGAUAUGCUGAUAAGCAGAAGGAGUGAUGUUCCGAGGUAGUCAAUAAAAUAAU [FmnAX 13 U30+G66] | 220 | 204 | 216 | 283 | 211
ACGUUCGGAACGGCCGCCACUAUGGGCAGUGAUGUUGCCCAUAACCGGUUUUGCGUCAGAUCCCUUAGGACCGGGUUCUGGUAUA [Soonlesoso] | 78.4 | 68.6 | 73.4 | 65.8 | 75.2
ACGACGCAUAGUGAUACCAGCUAUAUAUGAGUGAUGUUCUACCUAAAAUGGUAAUAAUUUAGCCCUUGGCAGCACUAUGCGUCAG [KL-SSTheoB4] | 380 | 456 | 377 | 562 | 262
GGUAGCAUGGCGGCCGCCACUUUGCACCUUUUCUUUUCUUUUGGUGCUUCACGAGUGAUGUUCGUAAGGACCGGGCCAUGCUACC | 259 | 217 | 261 | 213 | 195
AGACUUCACCGAAGGAGCGACGUAGCCUAGUGAUGUUAGGCACGAGAGAAAUCUCGUGUACGUCAGGUAGGUCGCGGUGAAGUCA [Omei KL Arginine B SS C v5] | 990 | 630 | 961 | 827 | 1040
UGAUACCAGACGGCCGCCACUUCUGCAAGUCAAAGACUUGCCAAGGGAAUCGUCCAGUGAUGUUGGAGGACCGGGUCUGGUAUCU [FiskerMod 3 - Jieux - Exclusion - Tryptophan B] | 880 | 445 | 817 | 585 | 668
CAACCCUGCUUUUUCGAGUUUUAGGGAUGACGAGGACCGGUACGGCCGCCACUCGACUACACUGUUCAGUGAUGUUGAACGGCGG [Teveza] | 165 | 60 | 116 | 148 | 267
GGGAGUAGUGCGGCCGCCACUGAGAAAGAAGAAGAAUAUAGUGAUGUUAUGUAGGAAAGGAAGAACAGGACCGGGCAUUAGAUUU [SSTRyptB.G] | 455 | 432 | 477 | 387 | 270
AGUGCACUGGCAGGAUAUGUACAGUGAUGUUGUGUAUGUCAGCAAGUCAAAGACUUGCUCUUCUGUGCAGAAGGGCCUGUGUACA [#05 K4 FMN B Exclusion] | 442 | 526 | 668 | 532 | 534
AGUCCACUCUAAAGAGUGGACCUAAGGGAUACCAGUGAUGUUGGUCACCCUUGGCAGCCCAGGGCCCGGGAUAAACCCGGGCCCA [#09 K4 Theophylline A Exclusion] | 120 | 100 | 113 | 99 | 113
GGUCCGGGCUCGGCCGCCACUCCCUCCUGCCGCAAGGUGGGAUACCGAGUGAUGUUCGGUUGGAGGAGGACCGGGAGCCCGGACC [#2 Exclusion - Tryptophan B Attempt #14 (HarryS)] | 115 | 124 | 121 | 133 | 118
UCCUGCAAUCGGCCACGAAAGUGGAUUGAUACCAGAGUCGAAAGACUCCCUUGGCAGCGAGUGAUGUUCGAAGCAGGUAAAUAAA | 464 | 380 | 502 | 514 | 432

Sequence | apparent KD of K4 kissing-loop reporter (input ligand: FMN 200 uM) [nM] | apparent KD of K4 kissing-loop reporter (input ligand: arginine 13.2 mM) [nM] | apparent KD of K4 kissing-loop reporter (input ligand: none) [nM] | apparent KD of K4 kissing-loop reporter [1] [nM] | apparent KD of K4 kissing-loop reporter [2] [nM]
GGGUGGCAGGCGGCCGCCACUCUUAGCAGCCAGUGAGUGAUGUUCGUGGCGGAAGAAUGUUCGUAGAGGACCGGGUUUGUUGUUC [Same State Tryptophan B GF 21] | 262 | 180 | 257 | 254 | 216
GCCGUACGCAUGGAUACCAGAGAUGUUAGUCUCGAUGCCAGUGAUGUUGGCUAUAGCAUACUCCCUUGGCAGCCAUGCGUACGGC | 132 | 113 | 128 | 113 | 107
UGCACGGGCUCGGCCGCCACUCCCGCGGGUCGGAAGGUCCGCUACUGAGUGAUGUUCGGUUGGAGGAGGACCGGGAGCCCGUGCA [#2 Exclusion - Tryptophan B Attempt #26 (HarryS)] | 135 | 109 | 104 | 104 | 88.5
UAAUAUAAUCUGUCGUAAACAAUAAUUAGUCAGGAUAUCGUAUAUUCGAGAAGGGACACUAUCUAGUGAUGUUAGAUAUUUCGUU [JR_SSFMNA_Sub026] | 45.5 | 76.4 | 53.4 | 67.5 | 47.6
CUUGUACAUGCCGAGGUAGGUGCGGGUUAGCGAGGACCGGUACGGCCGCCACUCGCCAAGUGAUGUUUGGUCCUUUGGGUCGGCA | 948 | 507 | 562 | 663 | 633
UGAUAGGACAGAAGGAGCGGUAGUGAUGUUGCCAAAAGAAUAAGGUGUCAAAAGACACCCUACCAGGUAGGUCGCUGUCCUAUCU | 346 | 368 | 423 | 429 | 289
UUUAUAUAGUCGGCCGCCACUGAUUUUUAUAUAUGUUUAUGUUUAUACGAGUGAUGUUCGUUAUUCAGGACCGGGACUUUUGUUA [JR_SSTryptoB_Sub016] | 108 | 133 | 109 | 117 | 102
ACACUUUACGUAGGAUAUGCGACGAGUGAUGUUCGUCAGGCGGCUCUAGAUUAAACAAGCCGCCUAGCAGAAGGACGGGCAGUGU [Teaanso] | 154 | 145 | 164 | 160 | 163
UGACAUUGCUCAGAUACCAGACAAGAGGAUCACCCUUGUGCCAACGUACAAAUAAUAAAUGUCCCUUGGCAGCUGAGCAAUGUCU [TheoBX 15] | 64.1 | 31.9 | 58.2 | 92.8 | 47.5
UAGUCUCGAGUCUGAGAUUACGGGUCAGAUACCAGACUAGAGAUAGUCCCUUGGCAGCUGAAGUUCAGUGAUGUUGAACGGAUUA [Theo B SS t10a] | 501 | 394 | 441 | 510 | 377
GUAUGUGGAAACACGUACUUGUAUCCUAAGCAGGAUAUGCGGAAACGCAGAAGGGCUACCAGCGAGUUUAUCCAGUGAUGUUGGA [Ex FMN A 12] | 289 | 235 | 269 | 264 | 288
GAUAUAGUGAUGUUAUAUAGGAAGGAGUUACGAGGACCGGUACGGCCGCCACUCGAAACGAGUGAUGAUUUGGGAGAUUGGGUUG [SSTryptA.P] | 364 | 359 | 395 | 430 | 332
UGUAUGUGAUUUGAUACCAGACCAGCUGGUGGUGUAUGAGUGAUGUUCAUGUUGGUUUGGGUCCCUUGGCAGCAAAUCGCAUACU [KL-SSTheoB30] | 14.5 | 7.4 | 11.8 | 8.88 | 11.7
AUAGGAGUGAUGUUCCUUAGUUUCUCCGAUACCAGUAUGGAAACAUACCCUUGGCAGCGGGAGACCGCUGAUUAGGAAACUAGUC [Theophylline A K4 8] | 255 | 242 | 261 | 251 | 220
AGGAGUGAUGUUCCUACAUAGACGGUCCGACGAGGACCGGUACGGCCGCCACUCGCGUCCCAGUGAUGUUGGGAUUCAACGUACA [Exclusion Tryptophan A Gf 15] | 120 | 150 | 139 | 149 | 122
CUCGUGGGUUUGAGAGGGCUUGUGGGAAGUGAGGAUAUUUAGGGAGAAAGAAGGCACUAUAGAAUAUAGUGAUGUUAUGUAAGGG [SSFMNA.O] | 466 | 954 | 492 | 180 | 348
UGUACCGAGUCAGGAUAUCAAAAUAAUUGGAGUGAUGUUCCAAAUACGACUGACAAAGUCGGUCGAUGAGAAGGGACUUGGUACU [FmnBS 11 #SwitchBubble #StaticStem] | 118 | 122 | 122 | 163 | 114
AAGAGGUAGGCGGCCGCCACUAGUUGUGAACACAUACGAGCCAGUGAUGUUGGUAUGGUGGGCGGUAGGACCGGGCCUACCUGAA [Exclusion - Tryptophan B (Freestyle 18)] | 427 | 481 | 496 | 454 | 475
UGACUGGACUGAAGGAGCGCGAAACUCCUAGUGAUGUUAGGACAACGAGACAAAGUCUCGACGCAGGUAGGUCGCAGUCUAGUCU | 148 | 111 | 131 | 144 | 132
UGUGGUGUAUCCUUUAGGAGUGAUGUUUUUCGAGGACCGGUACGGCCGCCACUCGAGUGAUGAGAGCGUCGUUGUGGUGGUUUGU [#16 K4 Tryptophan A Exclusion] | 1060 | 698 | 1190 | 697 | 730
AAAUAAAGCAGUCACCCAGUGAUGUUGGAAGGAGCGUGCGAAAGCACAGGUAGGUCGCCGAUAAAGGACAAAGUCCGUGGCUGCA [#SwitchBubble 29 #K4Early] | 275 | 350 | 253 | 279 | 190

— the supplement of paper PMC9170038
